Substrate in series [1]: N=C(N)NCCCCN
Briefly: saturable uptake in hOCT1-HEK cells. Type of series: cell-based, Homo sapiens.

Substrate in series [2]: N=C(N)NCCCCN
Briefly: radiolabeled uptake in hOCT2-HEK293 vs wild-type HEK293 cells. The series is classed as cell-based, Homo sapiens.

B1: OCT1 (hOCT1) (Homo sapiens) (protein)
chain: MPTVDDILEQVGESGWFQKQAFLILCLLSAAFAPICVGIVFLGFTPDHHCQSPGVAELSQRCGWSPAEELNYTVPGLGPAGEAFLGQCRRYEVDWNQSALSCVDPLASLATNRSHLPLGPCQDGWVYDTPGSSIVTEFNLVCADSWKLDLFQSCLNAGFLFGSLGVGYFADRFGRKLCLLGTVLVNAVSGVLMAFSPNYMSMLLFRLLQGLVSKGNWMAGYTLITEFVGSGSRRTVAIMYQMAFTVGLVALTGLAYALPHWRWLQLAVSLPTFLFLLYYWCVPESPRWLLSQKRNTEAIKIMDHIAQKNGKLPPADLKMLSLEEDVTEKLSPSFADLFRTPRLRKRTFILMYLWFTDSVLYQGLILHMGATSGNLYLDFLYSALVEIPGAFIALITIDRVGRIYPMAMSNLLAGAACLVMIFISPDLHWLNIIIMCVGRMGITIAIQMICLVNAELYPTFVRNLGVMVCSSLCDIGGIITPFIVFRLREVWQALPLILFAVLGLLAAGVTLLLPETKGVALPETMKDAENLGRKAKPKENTIYLKVQTSEPSGT
A word on the Km: it is the substrate concentration at which the rate is half of its maximum. With B1, the Michaelis-Menten constant (Km) in series [1] was determined as 30 mM.

B2: OCT2 (hOCT2) (Homo sapiens) (protein)
chain: MPTTVDDVLEHGGEFHFFQKQMFFLLALLSATFAPIYVGIVFLGFTPDHRCRSPGVAELSLRCGWSPAEELNYTVPGPGPAGEASPRQCRRYEVDWNQSTFDCVDPLASLDTNRSRLPLGPCRDGWVYETPGSSIVTEFNLVCANSWMLDLFQSSVNVGFFIGSMSIGYIADRFGRKLCLLTTVLINAAAGVLMAISPTYTWMLIFRLIQGLVSKAGWLIGYILITEFVGRRYRRTVGIFYQVAYTVGLLVLAGVAYALPHWRWLQFTVSLPNFFFLLYYWCIPESPRWLISQNKNAEAMRIIKHIAKKNGKSLPASLQRLRLEEETGKKLNPSFLDLVRTPQIRKHTMILMYNWFTSSVLYQGLIMHMGLAGDNIYLDFFYSALVEFPAAFMIILTIDRIGRRYPWAASNMVAGAACLASVFIPGDLQWLKIIISCLGRMGITMAYEIVCLVNAELYPTFIRNLGVHICSSMCDIGGIITPFLVYRLTNIWLELPLMVFGVLGLVAGGLVLLLPETKGKALPETIEEAENMQRPRKNKEKMIYLQVQKLDIPLN
With B2, the Km in series [2] is 2 mM.

These data come from publication PMC2814896.
